Data: the supplement of paper PMC10567573

B1: ARL6IP1 (parent)
chain: YLDPSVLSGVSCFVMFLCLADYLV

Variants of: B1
Experiment: protein stability index of a GFP-peptide fusion (GPS, HEK-293T) (PSI 1-6); higher = more stable
Conditions: c terminus: a fixed tail appended
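Also: lentivirally expressed fusions sorted by FACS into six bins by GFP to DsRed ratio, PSI derived from sequencing read proportions per bin multiplied by bin number.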

In order of falling protein stability index:
1. YLDPSVLSGVSCFVMFLCLADYEV [L23E]  4.8
2. YLDPSVLSGVSCFVMFMCLADYLV [L17M]  4.66
3. YLDPSVLSGVSCTVMFLCLADYLV [F13T]  4.33
4. YLDPSVLSGVSCFVMFLCLADYIV [L23I]  4.16
5. YLDPSVLSGVSQFVMFLCLADYLV [C12Q]  4.12
6. NLDPSVLSGVSCFVMFLCLADYLV [Y1N]  4.11
7. YLDPSVLSGVSCFVMFLCLADSLV [Y22S]  3.94
8. HLDPSVLSGVSCFVMFLCLADYLV [Y1H]  3.89
9. YLDPSVLSGVSCFVMFLCSADYLV [L19S]  3.89
10. YLDPSVLSGVSCFMMFLCLADYLV [V14M]  3.79
11. YLDPSVLLGVSCFVMFLCLADYLV [S8L]  3.77
12. YLDPSVLSGVSCFVMFLCLADYCV [L23C]  3.76
13. YLDPSVLSGVSCFVMFKCLADYLV [L17K]  3.75
14. YLDPSVLSGVSCYVMFLCLADYLV [F13Y]  3.73
15. YLDPSVLSGVSCFPMFLCLADYLV [V14P]  3.67
16. YLDPSVLSGVSVFVMFLCLADYLV [C12V]  3.66
17. YLDPSVLHGVSCFVMFLCLADYLV [S8H]  3.58
18. YLDPSVLSGVSCQVMFLCLADYLV [F13Q]  3.58
19. YLDPSVLSGVSPFVMFLCLADYLV [C12P]  3.54
20. YLDPSVLSGVSGFVMFLCLADYLV [C12G]  3.53
21. YLDPSVLSGVSCFVMFLCLADQLV [Y22Q]  3.52
22. YLDPSVLSGNSCFVMFLCLADYLV [V10N]  3.52
23. YLDMSVLSGVSCFVMFLCLADYLV [P4M]  3.45
24. YLDPSVLSGSSCFVMFLCLADYLV [V10S]  3.4
25. YLDPSVLSGVSCFVMFLFLADYLV [C18F]  3.35
26. YLDVSVLSGVSCFVMFLCLADYLV [P4V]  3.33
27. YLDPSVLSGASCFVMFLCLADYLV [V10A]  3.22
28. YLDPSVLSGVSCFVMFLCLADYNV [L23N]  3.21
29. YLDCSVLSGVSCFVMFLCLADYLV [P4C]  3.21
30. YLDPSVLSGFSCFVMFLCLADYLV [V10F]  3.19
31. YLDDSVLSGVSCFVMFLCLADYLV [P4D]  3.12
32. CLDPSVLSGVSCFVMFLCLADYLV [Y1C]  3.1
33. YLDPSVLSGVSCFVMFLCLADYTV [L23T]  3.08
34. YLDPSVLSGVSCFVMFLCLADCLV [Y22C]  3.08
35. YLDPSVLSGVSCFVMFLCLADYVV [L23V]  3.07
36. YLDPSVLSGPSCFVMFLCLADYLV [V10P]  3.06
37. YLDPSVLSGVSCFVMFLCDADYLV [L19D]  2.98
38. YLDPSVLSGLSCFVMFLCLADYLV [V10L]  2.97
39. YLDPSVLIGVSCFVMFLCLADYLV [S8I]  2.96
40. YLDPSVLRGVSCFVMFLCLADYLV [S8R]  2.95
41. YLDPSVLSGDSCFVMFLCLADYLV [V10D]  2.93
42. VLDPSVLSGVSCFVMFLCLADYLV [Y1V]  2.9
43. YLDNSVLSGVSCFVMFLCLADYLV [P4N]  2.9
44. YLDPSVLSGQSCFVMFLCLADYLV [V10Q]  2.89
45. YLDPSVLSGVSCFVMFLCLADPLV [Y22P]  2.87
46. YLDPSVLSGVSCFVMFLHLADYLV [C18H]  2.85
47. YLDPSVLSGVSCFSMFLCLADYLV [V14S]  2.83
48. YLDPSVLSGVSCFVMFLCLADYMV [L23M]  2.83
49. RLDPSVLSGVSCFVMFLCLADYLV [Y1R]  2.81
50. YLDPSVLSGVSCIVMFLCLADYLV [F13I]  2.81
51. YLDPSVLSGVSCFVMFLCTADYLV [L19T]  2.74
52. YLDPSVLSGVSCFVMFLCLADYHV [L23H]  2.74
53. YLDPSVLSGVSCFVMFLNLADYLV [C18N]  2.68
54. YLDPSVLSGESCFVMFLCLADYLV [V10E]  2.67
55. YLDISVLSGVSCFVMFLCLADYLV [P4I]  2.66
56. YLDPSVLSGVSCFVMFLRLADYLV [C18R]  2.65
57. YLDPSVLSGVSCDVMFLCLADYLV [F13D]  2.64
58. ILDPSVLSGVSCFVMFLCLADYLV [Y1I]  2.63
59. YLDPSVLSGCSCFVMFLCLADYLV [V10C]  2.61
60. YLDPSVLSGVSCFVMFLCNADYLV [L19N]  2.57
61. YLDPSVLSGVSCFVMFLCFADYLV [L19F]  2.56
62. YLDPSVLSGVSCFVMFRCLADYLV [L17R]  2.54
63. YLDPSVLSGVSFFVMFLCLADYLV [C12F]  2.47
64. YLDPSVLSGVSYFVMFLCLADYLV [C12Y]  2.47
65. YLDPSVLSGKSCFVMFLCLADYLV [V10K]  2.46
66. YLDPSVLSGVSCNVMFLCLADYLV [F13N]  2.42
67. YLDPSVLSGVSCFVMFHCLADYLV [L17H]  2.4
68. YLDPSVLSGVSCFVMFLKLADYLV [C18K]  2.37
69. YLDPSVLSGVSCFVMFLCLADYYV [L23Y]  2.27
70. YLDPSVLSGVSWFVMFLCLADYLV [C12W]  2.26
71. YLDPSVLMGVSCFVMFLCLADYLV [S8M]  2.26
72. YLDPSVLSGHSCFVMFLCLADYLV [V10H]  2.26
73. YLDPSVLSGVSTFVMFLCLADYLV [C12T]  2.24
74. YLDPSVLSGWSCFVMFLCLADYLV [V10W]  2.21
75. YLDPSVLSGVSCFVMFVCLADYLV [L17V]  2.2
76. YLDPSVLSGVSCFWMFLCLADYLV [V14W]  2.15
77. YLDPSVLSGVSCFVMFLCLADVLV [Y22V]  2.14
78. YLDPSVLSGVSCFLMFLCLADYLV [V14L]  2.1
79. YLDPSVLSGVSCFVMFLCPADYLV [L19P]  2.1
80. YLDPSVLSGVSCFVMFLVLADYLV [C18V]  2.09
81. YLDPSVLSGVSCFFMFLCLADYLV [V14F]  2.09
82. YLDPSVLSGVSCFVMFLCLADYWV [L23W]  2.07
83. YLDPSVLSGVSCFVMFLQLADYLV [C18Q]  2.01
84. YLDPSVLSGVSCFKMFLCLADYLV [V14K]  1.98
85. YLDPSVLSGVSCFVMFLYLADYLV [C18Y]  1.96
86. YLDPSVLSGVSCFVMFLALADYLV [C18A]  1.91
87. YLDPSVLSGVSCFVMFLCYADYLV [L19Y]  1.85
88. YLDPSVLSGVSCFVMFLCWADYLV [L19W]  1.73
89. YLDPSVLSGVSCFRMFLCLADYLV [V14R]  1.65
90. ALDPSVLSGVSCFVMFLCLADYLV [Y1A]  1.59
91. YLDPSVLSGVSCFVMFLCLADLLV [Y22L]  1.58
92. YLDPSVLSGTSCFVMFLCLADYLV [V10T]  1.56
93. YLDPSVLSGVSSFVMFLCLADYLV [C12S]  1.48
94. YLDPSVLSGVSCFVMFSCLADYLV [L17S]  1.35
